The target in assay [1] is T1, potato lectin (Sigma) (potato, UniProt Q9S8M0 23-323).
T1 construct: Bought glycoprotein, coated on ELISA plates
T1 sequence (looked up): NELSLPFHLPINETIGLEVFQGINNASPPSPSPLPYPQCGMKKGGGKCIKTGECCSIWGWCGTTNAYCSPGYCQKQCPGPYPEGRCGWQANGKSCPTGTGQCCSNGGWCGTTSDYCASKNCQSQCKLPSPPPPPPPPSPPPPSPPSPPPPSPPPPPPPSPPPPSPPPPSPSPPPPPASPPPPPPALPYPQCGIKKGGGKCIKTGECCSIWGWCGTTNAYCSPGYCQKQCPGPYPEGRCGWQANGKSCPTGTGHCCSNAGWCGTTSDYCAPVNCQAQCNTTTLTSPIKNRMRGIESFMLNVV
In words: VHH-coupled Uvitex OB microcapsules retained on potato lectin-coated wells; 4% surface coverage.

Assay [2] addresses T1, potato lectin (Sigma). The assay is described as follows: VHH-coupled Uvitex microcapsules retained on potato lectin-coated wells; 4% surface coverage.
Assay [3] deals with T1, potato lectin (Sigma). The assay is described as follows: VHH-coupled lambda-cyhalothrin microcapsules retained on potato lectin-coated wells; 100% surface coverage.
Assay [4] concerns the target T1, potato lectin (Sigma). In words: VHH-coupled lambda-cyhalothrin microcapsules retained on potato lectin-coated wells; 20% surface coverage.
Assay [5] addresses T1, potato lectin (Sigma). The assay is described as follows: VHH-coupled Uvitex OB microcapsules retained on potato lectin-coated wells; 100% surface coverage.
Assay [6] addresses T1, potato lectin (Sigma). The assay is described as follows: VHH-coupled Uvitex microcapsules retained on potato lectin-coated wells; 20% surface coverage.
In assay [7] the target is T1, potato lectin (Sigma). The assay is described as follows: VHH-coupled Uvitex OB microcapsules retained on potato lectin-coated wells; 20% surface coverage.
Assay [8] addresses T1, potato lectin (Sigma). In words: VHH-coupled Uvitex microcapsules retained on potato lectin-coated wells; 100% surface coverage.
The target of assay [9] is T1, potato lectin (Sigma). The assay is described as follows: VHH-coupled lambda-cyhalothrin microcapsules retained on potato lectin-coated wells; 4% surface coverage.
Assay [10] deals with unrelated antigens. The assay is described as follows: VHH-coupled Uvitex microcapsules retained on wells coated with unrelated antigen; 20% surface coverage.
The target of assay [11] is unrelated antigens. In words: VHH-coupled Uvitex microcapsules retained on wells coated with unrelated antigen; 100% surface coverage.
Assay [12] deals with T1, potato lectin (Sigma). In words: VHH-coupled Uvitex microcapsules on potato lectin-coated wells; 25-fold less microcapsules applied. The method, then:
An ELISA-like assay was performed using high bind half area microplates (Greiner Bio-One) coated with 5 μg/well potato lectin. Control wells included blank wells or wells coated with unrelated antigens. Plates were washed three times with PBS with 0.05%-TWEEN®-20 and blocked with 5% skimmed milk in PBS for 1 to 2 hours. VHH-coupled Uvitex-containing microcapsules were diluted to appropriate densities in 1% skimmed milk in PBS with 0.05%-TWEEN®-20. Five-fold serial dilution series were prepared and allowed to bind to the surface to compare binding of microcapsules coupled with monovalent or bivalent VHH. Microcapsules were added to the antigen-coated or control wells and allowed to bind for 1 hour. Unbound microcapsules were removed by washing five times with PBS with 0.05%-TWEEN®-20. The bottoms of ELISA plate wells were analyzed for bound microcapsules on a macrozoom microscope system (Nikon). Microcapsules were counted using Volocity image analysis software (Perkin Elmer). A DAPI filter was used to visualize Uvitex microcapsules.
The surface area of microcapsules with coupled bivalent VHH was 15-fold above the surface area of blank microcapsules applied at this microcapsule density while the surface area of microcapsules with monovalent VHH was only six-fold above the surface area of blank microcapsules applied at this microcapsule density. […]

The target of assay [13] is unrelated antigens. In words: VHH-coupled Uvitex microcapsules retained on wells coated with unrelated antigen; 4% surface coverage.

Take unrelated VHH: the area of bound microcapsules with potato lectin (Sigma) [1] was 7.53; with potato lectin (Sigma) [5], 16.7; with potato lectin (Sigma) [7], 35.4. Further, the surface area of bound microcapsules was 19.2 in the assay with potato lectin (Sigma) [2], 43.5 in the assay with potato lectin (Sigma) [6] and 142 in the assay with potato lectin (Sigma) [8]. The counts of bound microcapsules (microcapsules) with potato lectin (Sigma) [3] is 828; with potato lectin (Sigma) [4], 709; with potato lectin (Sigma) [9], 348.

B1: Bivalent VHH 3E6 (VHH)
chain: QVQLQESGGGLVQPGGTLSLSCAASGFNVRWYGMGWFRQAPGKEREGVACISALQETTAYADSVKGRFTLSRDNPKNTLSLQMNNLQPEDTGVYYCATTDCDDSSRMTYTSYLGQGTQVTVSSGGGGSGGGSQVQLQESGGGLVQPGGTLSLSCAASGFNVRWYGMGWFRQAPGKEREGVACISALQETTAYADSVKGRFTLSRDNPKNTLSLQMNNLQPEDTGVYYCATTDCDDSSRMTYTSYLGQGTQVTVSSAAAEQKLISEEDLNGAAHHHHHH
notes: Built from the general description of the bivalent constructs (two VHH in tandem); Tested covalently coupled to Uvitex microcapsules
As for B1, the surface area of bound microcapsules worked out at 22.1 in the assay with unrelated antigens [10], 45.7 with unrelated antigens [11] and 15 with unrelated antigens [13]. Also, the “fold of surface area above blank microcapsules” value with potato lectin (Sigma) [12] worked out at 15 fold.

Source of the values: US20130217572A1, “SPECIFIC DELIVERY OF AGROCHEMICALS” (VRIJE UNIVERSITEIT BRUSSEL, priority 2010, published 2013).
